Assay results taken from US20210340206A1 (SYLUS, published 2021).

T1: Soluble mouse EPOR chimera protein (R&D Systems) (mouse, UniProt P14753 25-249)
T1 construct: extracellular domain; Bought from R&D Systems; Amine-coupled to the SPR chip; also called erythropoietin receptor
T1 sequence (looked up): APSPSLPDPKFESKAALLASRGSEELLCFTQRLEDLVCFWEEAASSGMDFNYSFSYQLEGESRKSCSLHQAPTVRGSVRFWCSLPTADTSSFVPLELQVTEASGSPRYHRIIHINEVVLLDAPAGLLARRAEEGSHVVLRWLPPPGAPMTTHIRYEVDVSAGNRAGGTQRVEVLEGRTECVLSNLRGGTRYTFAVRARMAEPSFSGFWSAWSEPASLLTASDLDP

B1: ML1 (peptide)
peptide: LQLHVDKAVSGLRSLTTLLRALG
notes: Synthetic monomer made by solid phase peptide synthesis; also called erythropoietin-derived peptide ML1

molecular target: T1, Soluble mouse EPOR chimera protein (R&D …); experiment: SPR, mouse EPOR chimera amine-coupled to chip, peptide as analyte
Procedure: The SPR technique is to measure interactions between biomolecules in real-time by using an optical principle without specific labeling, and is a system analyzing affinity between two molecules and kinetics, i.e., an association rate (Ka) and a dissociation rate (Kd).
In detail, real-time SPR analysis was performed using Reichert SPR Biosensor SR 7500C instrument (Reichert Inc., NY, USA). Soluble mouse EPOR chimera proteins (R&D Systems, Minneapolis, Minn., USA) were covalently linked to a carboxymethylated dextran matrix-coated chip (BR-1005-39, Pharmacia Biosensor AB) by an amine coupling procedure using an amine coupling kit (BR-1000-50, GE Healthcare, USA) in accordance with manufacturer's instructions. […] For signal normalization, DMSO was applied at a flow rate of 5 μl/minute, and after each binding cycle, the sensor chip was regenerated by injecting 25 mM acetic acid at a flow rate of 20 μl/minute.

| Binder | Kd [µM] |
| --- | --- |
| AGLRSRAHLRRALA (Synthetic monomer) [ML5-1] | 78.3 |
| NKAVAGLRSLTVN (Synthetic monomer) [ML8-1] | 2370 |
| RHVQKAESGLRSLTKLLREL (Synthetic monomer) [ML2-1] | 14.3 |
| SGLRSLTTLLRALGAQKEAI (Synthetic monomer) [ML6] | 900 |
| TRVNYQAWKR (Synthetic monomer) [ML3-1] | 4.31 |
| B1 | 6.46 |
| DEALDLEVDKAATGLRTLTTLIRAL (Synthetic monomer) [ML7-1] | 63.7 |
| KKAVSGLKTLTHILRALGAQKEAI (Synthetic monomer) [ML4-1] | ~39.3 |
| LHVDKAVSGLRSLTTLLRAL (Synthetic monomer) [ML2] | 273 |
| TKVNFYAWKR (Synthetic monomer) [ML3] | 14.6 |
| KGLRSLISLLRALGAQKEAI (Synthetic monomer) [ML6-1] | 158 |
| LQLHVLKRVSGLLSHTMLLKALG (Synthetic monomer) [ML1-1] | 1.06 |
| DKAVSGLRSLTTLLRALGAQKEAI (Synthetic monomer) [ML4] | 10 |
| DKAVSGLRSLTTLLRAL (Synthetic monomer) [ML8] | 444 |
| SGLRSLTTLLRALG (Synthetic monomer) [ML5] | 0.329 |

molecular target: T1, Soluble mouse EPOR chimera protein (R&D …); experiment: as above; remark: another data set of the same source

| Binder | Kd [µM] |
| --- | --- |
| B1 | 6.46 |
| LDLEVDKAVSGLRSLTTLLRALG (Charge-modified variant of ML1) [ML1-C1] | 150 |
| LQRHVDKRVSGLRSLTTLLRALG (Charge-modified variant of ML1) [ML1-C2] | 11.8 |
| LQRHVKKRVKGLKSLTTLLRALG (Charge-modified variant of ML1) [ML1-C3] | 9.83 |
| LQLHVLKAVSGLLTHTTLLKALG [ML1-H1] | 7.85 |
| LQLHVLKAVAGLRTLAMIRRALA [ML1-H3] | 1.15 |
| LQLHVLKAVSGLLTLTMIRRALG [ML1-H2] | 0.307 |
